From the supplement of paper PMC9112550, “Optimization of the antimicrobial peptide Bac7 by deep mutational scanning” (BMC Biology, 2022)

Test system: Escherichia coli TOP10
Assay: shrunken log2 fold change of peptide-encoding DNA abundance (4.5 h post-induction vs induction); higher = less antimicrobial activity (less host growth inhibition)
Details: time post-induction: 4.5 h; library: site-saturation at positions 5, 18, 19, 20
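Also: peptides expressed intracellularly from a pBAD plasmid library in pooled LB shake-flask culture, induced with 0.3% L-arabinose, DNA abundance read by NGS, three biological replicates, DESeq2 with apeglm shrinkage.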

Sequence: RRIRGRPPRLPRPRPRPVYKPRP
- shrunken log2 fold change: 0.0688

Sequence: RRIRFRPPRLPRPRPRPKAWPRP
- shrunken log2 fold change: 0.0254

Sequence: RRIRPRPPRLPRPRPRPCWPPRP
- shrunken log2 fold change: 0.144

Sequence: RRIRGRPPRLPRPRPRPMYDPRP
- shrunken log2 fold change: 0.233

Sequence: RRIRMRPPRLPRPRPRPHAWPRP
- shrunken log2 fold change: 0.365

Sequence: RRIRYRPPRLPRPRPRPNVWPRP
- shrunken log2 fold change: -0.00356

Sequence: RRIRERPPRLPRPRPRPNQIPRP
- shrunken log2 fold change: -0.293

Sequence: RRIRSRPPRLPRPRPRPMKMPRP
- shrunken log2 fold change: -0.0963

Sequence: RRIRWRPPRLPRPRPRPDLQPRP
- shrunken log2 fold change: -0.0193

Sequence: RRIRARPPRLPRPRPRPRCPPRP
- shrunken log2 fold change: 0.248

Sequence: RRIRERPPRLPRPRPRPYPLPRP
- shrunken log2 fold change: -0.192

Sequence: RRIRRRPPRLPRPRPRPGDIPRP
- shrunken log2 fold change: 0.0886

Sequence: RRIRPRPPRLPRPRPRPTGHPRP
- shrunken log2 fold change: 0.0828

Sequence: RRIRSRPPRLPRPRPRPCGFPRP
- shrunken log2 fold change: -0.0141

Sequence: RRIRHRPPRLPRPRPRPIHYPRP
- shrunken log2 fold change: -0.0138

Sequence: RRIRFRPPRLPRPRPRPWAQPRP
- shrunken log2 fold change: -0.141

Sequence: RRIRMRPPRLPRPRPRPQNEPRP
- shrunken log2 fold change: 0.155

Sequence: RRIRGRPPRLPRPRPRPEEIPRP
- shrunken log2 fold change: 0.842

Sequence: RRIRQRPPRLPRPRPRPQHQPRP
- shrunken log2 fold change: 0.26

Sequence: RRIRNRPPRLPRPRPRPHSDPRP
- shrunken log2 fold change: 0.0373

Sequence: RRIRERPPRLPRPRPRPSAKPRP
- shrunken log2 fold change: 0.0244

Sequence: RRIRKRPPRLPRPRPRPFNQPRP
- shrunken log2 fold change: -0.0503

Sequence: RRIRVRPPRLPRPRPRPFFSPRP
- shrunken log2 fold change: -0.371

Sequence: RRIRWRPPRLPRPRPRPFEEPRP
- shrunken log2 fold change: 0.43

Sequence: RRIRERPPRLPRPRPRPDWPPRP
- shrunken log2 fold change: 0.108

Sequence: RRIRSRPPRLPRPRPRPEQRPRP
- shrunken log2 fold change: -0.011

Sequence: RRIRWRPPRLPRPRPRPHNFPRP
- shrunken log2 fold change: -0.0122

Sequence: RRIRFRPPRLPRPRPRPWQKPRP
- shrunken log2 fold change: -0.097

Sequence: RRIRYRPPRLPRPRPRPDWVPRP
- shrunken log2 fold change: -0.252

Sequence: RRIRPRPPRLPRPRPRPWTVPRP
- shrunken log2 fold change: -0.155

Sequence: RRIRVRPPRLPRPRPRPDHHPRP
- shrunken log2 fold change: -0.392

Sequence: RRIRLRPPRLPRPRPRPKMRPRP
- shrunken log2 fold change: 0.608

Sequence: RRIRERPPRLPRPRPRPMNIPRP
- shrunken log2 fold change: -0.847

Sequence: RRIRSRPPRLPRPRPRPNMIPRP
- shrunken log2 fold change: -0.429

Sequence: RRIRERPPRLPRPRPRPGFRPRP
- shrunken log2 fold change: 0.231

Sequence: RRIRVRPPRLPRPRPRPWEKPRP
- shrunken log2 fold change: 0.0403

Sequence: RRIRCRPPRLPRPRPRPKILPRP
- shrunken log2 fold change: -0.0835

Sequence: RRIRHRPPRLPRPRPRPIWNPRP
- shrunken log2 fold change: -0.892

Sequence: RRIRMRPPRLPRPRPRPANKPRP
- shrunken log2 fold change: 0.178

Sequence: RRIRFRPPRLPRPRPRPNFEPRP
- shrunken log2 fold change: -0.0264

Sequence: RRIRTRPPRLPRPRPRPLVRPRP
- shrunken log2 fold change: 0.114

Sequence: RRIRQRPPRLPRPRPRPVVIPRP
- shrunken log2 fold change: -0.292

Sequence: RRIRQRPPRLPRPRPRPMQIPRP
- shrunken log2 fold change: 0.0201

Sequence: RRIRSRPPRLPRPRPRPTHMPRP
- shrunken log2 fold change: 0.188

Sequence: RRIRQRPPRLPRPRPRPQSAPRP
- shrunken log2 fold change: -0.08

Sequence: RRIRCRPPRLPRPRPRPGQKPRP
- shrunken log2 fold change: 0.0902

Sequence: RRIRCRPPRLPRPRPRPCYAPRP
- shrunken log2 fold change: -0.387

Sequence: RRIRYRPPRLPRPRPRPTQCPRP
- shrunken log2 fold change: -0.0863

Sequence: RRIRDRPPRLPRPRPRPAEPPRP
- shrunken log2 fold change: 0.288

Sequence: RRIRRRPPRLPRPRPRPFWAPRP
- shrunken log2 fold change: 0.0811

Sequence: RRIRNRPPRLPRPRPRPPDDPRP
- shrunken log2 fold change: 0.123

Sequence: RRIRRRPPRLPRPRPRPLTEPRP
- shrunken log2 fold change: 0.793

Sequence: RRIRFRPPRLPRPRPRPVNNPRP
- shrunken log2 fold change: -0.316

Sequence: RRIRIRPPRLPRPRPRPQFVPRP
- shrunken log2 fold change: -0.229

Sequence: RRIRYRPPRLPRPRPRPICRPRP
- shrunken log2 fold change: -0.226

Sequence: RRIRERPPRLPRPRPRPEVGPRP
- shrunken log2 fold change: 0.0848

Sequence: RRIRARPPRLPRPRPRPDCTPRP
- shrunken log2 fold change: 0.27

Sequence: RRIRLRPPRLPRPRPRPILWPRP
- shrunken log2 fold change: -0.0294

Sequence: RRIRCRPPRLPRPRPRPWENPRP
- shrunken log2 fold change: 0.0328

Sequence: RRIRSRPPRLPRPRPRPTSSPRP
- shrunken log2 fold change: -0.296

Sequence: RRIRFRPPRLPRPRPRPVQSPRP
- shrunken log2 fold change: -0.16

Sequence: RRIRLRPPRLPRPRPRPDDPPRP
- shrunken log2 fold change: 0.00153

Sequence: RRIRKRPPRLPRPRPRPNQWPRP
- shrunken log2 fold change: 0.274

Sequence: RRIRSRPPRLPRPRPRPQLQPRP
- shrunken log2 fold change: 0.104

Sequence: RRIRFRPPRLPRPRPRPSYSPRP
- shrunken log2 fold change: -0.903

Sequence: RRIRVRPPRLPRPRPRPGNNPRP
- shrunken log2 fold change: -0.249

Sequence: RRIRWRPPRLPRPRPRPWSSPRP
- shrunken log2 fold change: -0.0663

Sequence: RRIRWRPPRLPRPRPRPAIEPRP
- shrunken log2 fold change: -0.04

Sequence: RRIRIRPPRLPRPRPRPTVFPRP
- shrunken log2 fold change: -0.237

Sequence: RRIRKRPPRLPRPRPRPALCPRP
- shrunken log2 fold change: 0.146

Sequence: RRIRGRPPRLPRPRPRPMFLPRP
- shrunken log2 fold change: -0.0125

Sequence: RRIRGRPPRLPRPRPRPVFSPRP
- shrunken log2 fold change: 0.0314

Sequence: RRIRVRPPRLPRPRPRPFRVPRP
- shrunken log2 fold change: -0.266

Sequence: RRIRLRPPRLPRPRPRPKEIPRP
- shrunken log2 fold change: -0.00121

Sequence: RRIRYRPPRLPRPRPRPPEIPRP
- shrunken log2 fold change: -0.0815

Sequence: RRIRPRPPRLPRPRPRPIFQPRP
- shrunken log2 fold change: 0.0149

Sequence: RRIRPRPPRLPRPRPRPTSSPRP
- shrunken log2 fold change: 0.0475

Sequence: RRIRYRPPRLPRPRPRPHGNPRP
- shrunken log2 fold change: -0.573

Sequence: RRIRDRPPRLPRPRPRPGQTPRP
- shrunken log2 fold change: 0.032

Sequence: RRIRNRPPRLPRPRPRPGNHPRP
- shrunken log2 fold change: -0.265

Sequence: RRIRPRPPRLPRPRPRPVFLPRP
- shrunken log2 fold change: -0.128

Sequence: RRIRFRPPRLPRPRPRPPLRPRP
- shrunken log2 fold change: 0.373

Sequence: RRIRGRPPRLPRPRPRPIGGPRP
- shrunken log2 fold change: 0.0174

Sequence: RRIRHRPPRLPRPRPRPGQLPRP
- shrunken log2 fold change: 0.174

Sequence: RRIRTRPPRLPRPRPRPNVYPRP
- shrunken log2 fold change: -0.683

Sequence: RRIRARPPRLPRPRPRPNYKPRP
- shrunken log2 fold change: -0.345

Sequence: RRIRLRPPRLPRPRPRPGFKPRP
- shrunken log2 fold change: 0.0325

Sequence: RRIRYRPPRLPRPRPRPSPIPRP
- shrunken log2 fold change: -1.06

Sequence: RRIRSRPPRLPRPRPRPNNLPRP
- shrunken log2 fold change: -1.04

Sequence: RRIRPRPPRLPRPRPRPSHKPRP
- shrunken log2 fold change: -0.0374

Sequence: RRIRMRPPRLPRPRPRPHEIPRP
- shrunken log2 fold change: 0.356

Sequence: RRIRSRPPRLPRPRPRPDQMPRP
- shrunken log2 fold change: 0.049

Sequence: RRIRFRPPRLPRPRPRPHSFPRP
- shrunken log2 fold change: 0.00365

Sequence: RRIRLRPPRLPRPRPRPDFPPRP
- shrunken log2 fold change: 0.24

Sequence: RRIRKRPPRLPRPRPRPHEEPRP
- shrunken log2 fold change: 0.0526

Sequence: RRIRHRPPRLPRPRPRPKCCPRP
- shrunken log2 fold change: -0.0444

Sequence: RRIRVRPPRLPRPRPRPFDSPRP
- shrunken log2 fold change: -0.204

Sequence: RRIRKRPPRLPRPRPRPQLWPRP
- shrunken log2 fold change: 0.539

Sequence: RRIRFRPPRLPRPRPRPPYCPRP
- shrunken log2 fold change: -0.448

Sequence: RRIRKRPPRLPRPRPRPICYPRP
- shrunken log2 fold change: 0.125

Sequence: RRIRGRPPRLPRPRPRPADHPRP
- shrunken log2 fold change: 0.625

Sequence: RRIRGRPPRLPRPRPRPQTYPRP
- shrunken log2 fold change: 0.0285

Sequence: RRIRPRPPRLPRPRPRPHCRPRP
- shrunken log2 fold change: -0.198

Sequence: RRIRNRPPRLPRPRPRPCGWPRP
- shrunken log2 fold change: 0.0822

Sequence: RRIRKRPPRLPRPRPRPFFVPRP
- shrunken log2 fold change: 0.461

Sequence: RRIRTRPPRLPRPRPRPARSPRP
- shrunken log2 fold change: 0.0134

Sequence: RRIRMRPPRLPRPRPRPKSSPRP
- shrunken log2 fold change: 0.763

Sequence: RRIRVRPPRLPRPRPRPRCRPRP
- shrunken log2 fold change: -0.0394

Sequence: RRIRHRPPRLPRPRPRPKSEPRP
- shrunken log2 fold change: -0.00614
